This data set can be described thus: yeast display, Sf9 membrane polyspecificity reagent, FACS + sequencing; frameworks hold sequencing errors. Summed up:
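After 36–48 hours of galactose induction, yeast (Saccharomyces cerevisiae BJ5465) displaying a synthetic nanobody library were stained at 4 °C for 1 hour with 10% biotinylated, detergent-solubilized Sf9 membrane reagent. Streptavidin microbeads enriched the stained cells before FACS sorting into low and high (top ~1%) gates on anti-HA and streptavidin fluorescence. Each clone's polyreactivity label reflects its gate of origin.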
Take “QVQLVESGGALVQAGGSLRLSCAASGSTIRDYAMGWYRQAPRKERELVAVIDNSGGRTYYADSVKGRFTISRDNAKNTVYLQMNSLKPEDTAVYYCNAYAYPFRGGYWGQGTQVTVSS”: the “polyreactivity (PSR sort gate)” value is reported as “high polyreactivity”.
For “QVQLVESGGALVQAGGSLRLSSAASGSIFGSNGIGSYRPAPGKERELVAAITRSGGSTRYADSVKGRFTISRDNAKNTVYLQMNSLKPEDTAVYYCAKYDTSTGYDYWGQGTQVTVSS” the value was “high polyreactivity”.
For “QVQLVESGGALVQAGGSLRLSSAASGSTFYLNAMGWYRQAPGKERELVAAITVSGGSTYYADSVKGRFTISRDNAKNTVYLQMNSLKPEDTAVYYCARELLSPTYQRWYYYWGQGTQVTVSS” the value was “low polyreactivity”; for “QVQLVESGGALVQAGGSLRLTCAASGRTFYYYAKGWYRPAPGTERELVAAISCSGGRTYYADSVKGRFTISRDNANDTVYVPMNSLKPEDTAVFYCYAEPPSGYTVSSGGEMDYWGQGTQVTVSS”, “low polyreactivity”.
For “QVQLVESGGALVQAGGTRRLSCAASASTYPYAMGWYRQDPAKERELVAAITWSGGNTYFADSVKGRFTISRDNAKNSVYLQMNSMKPEDTAFYYCAALIGYRVFRYNYWGQGTQLTVSS” the value was “high polyreactivity”; for “QVQLVESGGCLDQAGGRLRLSCAASGSTFYDYVMGWYRQAPGKERELVAVISSSGSTNYADSVKGRVTISRDNAKNTVYLQMNSLKPEDTAVYYCAVDPFRRWWETIFDEYDYWGQGTQVTVSS”, “low polyreactivity”; for “QVQLVESGGCLFQAGGSLRLSCAASGSTFYWYTMGWYRQAHGKERELVSTMTTVGRTNYADSVKGRFTISRDNAKNTVYLQMKSLKPEVTAVYYCAASKARWPRGGCKYYYWRQGTQVTVSS”, “high polyreactivity”.
Consider “QVQLVESGGCLVHAGGSLRLSCAASGFTFRWYAMGWYRQAPGKERELVASISRRGGSTYYADSVKGRFTISRDNEKNTVYLQMNSLKPEDSAVYYCAADYYDYWGQGTQVTVSS”, for which the “polyreactivity (PSR sort gate)” value is reported as “high polyreactivity”.
In the case of “QVQLVESGGCLVQAGGILRLSCAASGSIFVGYDMGWYRQAPGKERELVAAITGTVSTYYADSVKGRFTISRDNAKNTVYLQMNSLKPEDTAVYYCAAEFVYAYGDGGVYWSWMEYWGQGTQVTVSS” it was “low polyreactivity”.
Consider “QVQLVESGGCLVQAGGILRLSCAASGYTFFLYAMGWYRQAPGKERELVAAINNGGGSTYYADSVKGRFTISRDNAKNTVYLQMNSLKPEDTAVYYCAVRVARGYRYGYWGQGTQVTVSS”, for which the “polyreactivity (PSR sort gate)” value was “high polyreactivity”.
For “QVQLVESGGCLVQAGGRLRLSCAASGFTFGYYAMGWYIQAPGKERELVAAIDWSGGTTYYADSVKGRFTISRDNAKNTVYLQMNSLKPEDTAVYYCAADVVEEDDLEFYYWGQGTQVTVSS” the value was “high polyreactivity”; for “QVQLVESGGCLVQAGGRLRLSCAASGRTFTGYTMGWYRQAPGKEREFVAAIRKSGGSTYYADSVKGRFTISRDNAKNTVYLQMNSLKPEDTAVYYCASRYRYYYTRYDYWGQGTQVTVSS”, “high polyreactivity”; for “QVQLVESGGCLVQAGGSLPLSSAASGSTFSYNDMGSDRQAPGKARELVADINVSVGRTYYADSVKGRFTISRDNAKNTVYLQMNSLKPEDTAVYYCAKDYYRYHYYYCGQGTQVTVSS”, “low polyreactivity”.
For “QVQLVESGGCLVQAGGSLRFTCAASGSIFPYYAMGWYRQAPGKERELVAAISGSGGSTYYADSVTGRFTISRDNAKYTVYLQMNSLNQEDTAVYYCAARPFARYEYWGQGTQVTVSS” the value was “low polyreactivity”; for “QVQLVESGGCLVQAGGSLRLICAASGGLFGTYTMGWYRQAPGKERELVAAIRSSSGRTYYADSVKGRFTISRDNAKNTVYLQMNILKPEDTAVYYCNAKYYGYRVGKYYPFGYWGQGTQVTVSS”, “high polyreactivity”; for “QVQLVESGGCLVQAGGSLRLSCAASGFIFGSNVMGWYRQAPGKERELVAAISYSGASTYYADSVKGRFTISRDNAKNTVYLQMNSLKPEDTAVYYCNAESYYFYWPVYSYDYWGQGTQVTVSS”, “low polyreactivity”.

(Values after the nanobody polyreactivity screen of Harvey et al. (2022).)
